Consider 1 substance from PMC10955725.

This assay addresses His6-Mb(S2)-Avi, recombinant monobody. The experiment in a line: BLI.

As a reminder, the Kd is the free concentration of one partner at which half of the binding sites on the other are occupied at equilibrium, for simple one-to-one binding. On to “wild-type (WT) SOD1, non-tagged recombinant (from UniProt P00441 2-154) (natural protein)”, for which the Kd came to 7 µM.
